Assay results published in patent US20160244497A1 (Amgen, published 2016).
Residue numbers refer to the chain shown, from its start. Names and notes keep the numbering of the source. Values joined by “and” are separate entries in the source; they are usually repeats but may differ in a detail not shown here. Equal values may be shown once.

B1: N-terminally PEGylated wild-type FGF21 (20 kDa PEG) (ligand)
chain: MHPIPDSSPLLQFGGQVRQRYLYTDDAQQTEAHLEIREDGTVGGAADQSPESLLQLKALKPGVIQILGVKTSRFLCQRPDGALYGSLHFDPEACSFRELLLEDGYNVYQSEAHGLPLHLPGNKSPHRDPAPRGPARFLPLPGLPPAPPEPPGILAPQPPDVGSSDPLSMVGPSQGRSPSYAS
modifications: one 20 kDa PEG on the N-terminus (alpha-amino group)
B2: FGF21(all K to all R, R36K), 2 x 20k PEG (ligand)
chain: B1 chain with R37K, K57R, K60R, K70R, K123R
modifications: two 20k PEG (amine-specific): N-terminus and Lys 36
B3: FGF21(K59R/K69R/K122R), 2 x 20k PEG (ligand)
chain: B1 chain with K60R, K70R, K123R
modifications: two 20k PEG (amine-specific): N-terminus and the one remaining lysine (Lys 56)
B4: FGF21(all K to all R, R72K), 2 x 20k PEG (ligand)
chain: B1 chain with K57R, K60R, K70R, R73K, K123R
modifications: two 20k PEG (amine-specific): N-terminus and Lys 72
B5: FGF21(all K to all R, R175K), 2 x 20k PEG (ligand)
chain: B1 chain with K57R, K60R, K70R, K123R, R176K
modifications: two 20k PEG (amine-specific): N-terminus and Lys 175
B6: FGF21(K all R, R126K), 2 x 20k PEG (ligand)
chain: B1 chain with K57R, K60R, K70R, K123R, R127K
modifications: two 20k PEG (amine-specific): N-terminus and Lys 126
B7: FGF21(all K to all R, R77K), 2 x 20k PEG (ligand)
chain: B1 chain with K57R, K60R, K70R, R78K, K123R
modifications: two 20k PEG (amine-specific): N-terminus and Lys 77
B8: FGF21(K56/59/69R), 2 x 20k PEG (ligand)
chain: B1 chain with K57R, K60R, K70R
modifications: two 20k PEG (amine-specific): N-terminus and the one remaining lysine (Lys 122)
B9: FGF21(K56R/K69R/K122R), 2 x 20k PEG (ligand)
chain: B1 chain with K57R, K70R, K123R
modifications: two 20k PEG (amine-specific): N-terminus and the one remaining lysine (Lys 59)
B10: FGF21(K56R/K59R/K122R), 2 x 20k PEG (ligand)
chain: B1 chain with K57R, K60R, K123R
modifications: two 20k PEG (amine-specific): N-terminus and the one remaining lysine (Lys 69)
B11: Native FGF21 (random), 2 x 20k PEG (ligand)
chain: B1 chain
modifications: two 20k PEG at random sites (sites not given)
B12: dually PEGylated FGF21 mutant E91C, H125C, P171G (ligand)
chain: B1 chain with E92C, H126C, P172G
modifications: 20 kDa methoxy-PEG-maleimide on Cys 91 and on Cys 125
B13: dually PEGylated FGF21 mutant E37C, R175C, P171G (ligand)
chain: B1 chain with E38C, P172G, R176C
modifications: 20 kDa methoxy-PEG-maleimide on Cys 37 and on Cys 175
B14: dually PEGylated FGF21 mutant E91C, R175C, P171G (ligand)
chain: B1 chain with E92C, P172G, R176C
modifications: 20 kDa methoxy-PEG-maleimide on Cys 91 and on Cys 175
B15: dually PEGylated FGF21 mutant E37C, H125C, P171G (ligand)
chain: B1 chain with E38C, H126C, P172G
modifications: 20 kDa methoxy-PEG-maleimide on Cys 37 and on Cys 125
B16: dually PEGylated FGF21 mutant E37C, G120C, P171G (ligand)
chain: B1 chain with E38C, G121C, P172G
modifications: 20 kDa methoxy-PEG-maleimide on Cys 37 and on Cys 120
B17: dually PEGylated FGF21 mutant E91C, G120C, P171G (ligand)
chain: B1 chain with E92C, G121C, P172G
modifications: 20 kDa methoxy-PEG-maleimide on Cys 91 and on Cys 120
B18: dually PEGylated FGF21 mutant E37C, E91C, P171G (ligand)
chain: B1 chain with E38C, E92C, P172G
modifications: 20 kDa methoxy-PEG-maleimide on Cys 37 and on Cys 91
B19: dually PEGylated FGF21 mutant R77C, G120C, P171G (ligand)
chain: B1 chain with R78C, G121C, P172G
modifications: 20 kDa methoxy-PEG-maleimide on Cys 77 and on Cys 120
B20: dually PEGylated FGF21 mutant E37C, R77C, P171G (ligand)
chain: B1 chain with E38C, R78C, P172G
modifications: 20 kDa methoxy-PEG-maleimide on Cys 37 and on Cys 77

What follows are binders tested against beta-klotho (assay: cell-based or functional assay).

Row | Binder | EC50, ELK-luciferase assay
1 | B1 | 36.7 nM and 43.3 nM and 21.5 nM and 40 nM

Target: beta-klotho
Assay: cell-based or functional assay
Remark: another data set of the same source

Row | Binder | In Vitro Activity EC50, ELK-luciferase assay
2 | B1 | 43.3 nM
3 | B2 | 73 nM
4 | B3 | 499 nM
5 | B4 | > 1000 nM
6 | B5 | > 1000 nM
7 | B6 | 38 nM
8 | B7 | 175 nM
9 | B8 | 500 nM
10 | B9 | 215 nM
11 | B10 | 531 nM
12 | B11 | 200 nM

Target: beta-klotho
Assay: cell-based or functional assay
Remark: another data set of the same source

Row | Binder | EC50, ELK-luciferase assay
13 | B1 | 37 nM

Target: beta-klotho
Assay: cell-based or functional assay
Remark: another data set of the same source

Row | Binder | EC50, ELK-luciferase assay
14 | B12 | 37 nM
15 | B13 | 162 nM
16 | B14 | 155 nM
17 | B15 | 37 nM
18 | B16 | 35 nM
19 | B17 | 34 nM
20 | B18 | 30 nM
21 | B19 | 35 nM
22 | B20 | 27 nM
